Measurements reported in US20180057581A1 (MorphoSys, published 2018).

Legend:
Assay in all cases: MSD specificity profiling, coated protein, Camille at 100 nM
[1] = biological target: Cell surface receptor 1 (human) (human)
Protocol: (§1) For this specificity profiling test the different proteins and controls were coated on two 384-well MSD plates with a concentration of 1 μg/ml at 4° C. over night. Plates were blocked with BSA and washed three times with PBS with 0.05% (v/v) Tween 20. Antibody samples were diluted to 100 nM and 10 nM in assay buffer (PBS with 0.5% (w/v) BSA, 0.05% (v/v) Tween 20). […] Samples and controls were incubated for three hours at room temperature. The plates were washed three times and 30 μl detection antibody (ECL-labeled anti-human Fab) were added per well and incubated for 1 h. After washing, MSD Read Buffer T with surfactant was added and electrochemiluminescence signals were detected using a Sector Imager 6000 (Meso Scale Discovery, Gaithersburg, Md., USA).

Lysozyme (chicken) = Lysozyme (chicken) (chicken, UniProt P00698 19-147)
Protocol: as §1

Fibrinogen (bovine) = biological target: T1, Fibrinogen (bovine) (bovine, UniProt P02672 20-615; P02676 1-468; P12799 25-444)
T1 sequence (looked up) 1: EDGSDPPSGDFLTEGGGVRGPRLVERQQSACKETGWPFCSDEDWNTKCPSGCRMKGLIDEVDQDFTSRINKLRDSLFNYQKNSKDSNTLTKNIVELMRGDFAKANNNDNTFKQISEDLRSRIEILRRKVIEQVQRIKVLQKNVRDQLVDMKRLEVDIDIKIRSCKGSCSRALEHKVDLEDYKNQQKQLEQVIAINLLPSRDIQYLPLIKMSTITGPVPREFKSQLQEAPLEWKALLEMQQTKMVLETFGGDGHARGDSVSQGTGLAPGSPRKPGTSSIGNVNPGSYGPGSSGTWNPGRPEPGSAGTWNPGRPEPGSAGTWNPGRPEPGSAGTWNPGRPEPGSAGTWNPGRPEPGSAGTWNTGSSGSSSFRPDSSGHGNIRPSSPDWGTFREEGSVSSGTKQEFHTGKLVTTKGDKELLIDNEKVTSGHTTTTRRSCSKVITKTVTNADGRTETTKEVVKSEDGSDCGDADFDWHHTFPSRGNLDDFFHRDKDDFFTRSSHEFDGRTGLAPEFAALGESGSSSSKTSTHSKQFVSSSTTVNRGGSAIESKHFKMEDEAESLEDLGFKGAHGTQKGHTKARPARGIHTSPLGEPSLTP
T1 sequence (looked up) 2: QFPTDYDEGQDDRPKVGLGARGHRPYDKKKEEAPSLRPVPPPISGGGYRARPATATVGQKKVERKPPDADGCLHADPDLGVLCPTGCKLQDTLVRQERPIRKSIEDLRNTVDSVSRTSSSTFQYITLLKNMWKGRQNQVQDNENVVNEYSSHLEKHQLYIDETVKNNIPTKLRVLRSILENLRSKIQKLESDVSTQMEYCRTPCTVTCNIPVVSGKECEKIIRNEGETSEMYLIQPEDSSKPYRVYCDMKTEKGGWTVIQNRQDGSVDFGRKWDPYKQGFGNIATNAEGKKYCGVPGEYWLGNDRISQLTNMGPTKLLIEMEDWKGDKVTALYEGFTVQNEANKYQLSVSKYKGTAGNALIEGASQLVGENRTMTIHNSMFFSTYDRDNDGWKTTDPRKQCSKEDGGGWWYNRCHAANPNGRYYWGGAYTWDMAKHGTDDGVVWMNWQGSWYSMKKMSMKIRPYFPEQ
T1 sequence (looked up) 3: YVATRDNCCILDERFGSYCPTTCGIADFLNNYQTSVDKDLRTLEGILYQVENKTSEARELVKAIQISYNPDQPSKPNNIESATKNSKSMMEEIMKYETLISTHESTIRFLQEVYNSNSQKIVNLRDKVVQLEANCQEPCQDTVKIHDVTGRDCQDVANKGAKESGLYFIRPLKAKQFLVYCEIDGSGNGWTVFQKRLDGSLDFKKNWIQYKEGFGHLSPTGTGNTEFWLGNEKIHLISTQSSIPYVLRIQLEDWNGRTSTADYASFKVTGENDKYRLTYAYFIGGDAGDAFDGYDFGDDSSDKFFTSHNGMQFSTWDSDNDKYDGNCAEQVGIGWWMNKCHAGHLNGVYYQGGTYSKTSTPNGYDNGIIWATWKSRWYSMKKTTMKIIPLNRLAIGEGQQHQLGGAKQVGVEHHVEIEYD
Protocol: as §1

RNase A (cow) = biological target: T2, RNase A (cow) (cow, UniProt P61823 27-150)
T2 sequence (looked up): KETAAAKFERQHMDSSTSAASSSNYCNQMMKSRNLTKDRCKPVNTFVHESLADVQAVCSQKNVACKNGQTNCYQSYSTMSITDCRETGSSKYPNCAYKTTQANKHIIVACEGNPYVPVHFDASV
Protocol: as §1

Cytokine 2 (human) = Cytokine 2 (human) (human)
Protocol: as §1

Serum albumin (human) = Serum albumin (human) (human, UniProt P02768 25-609)
Protocol: as §1

[2] = biological target: Anti-human Fc (Dianova, #109-005-098)
Protocol: as §1

Myoglobin (horse) = Myoglobin (horse) (horse, UniProt P68082 2-154)
Protocol: as §1

Trypsinogen (cow) = biological target: T3, Trypsinogen (cow) (cow, UniProt P00760 18-246)
T3 sequence (looked up): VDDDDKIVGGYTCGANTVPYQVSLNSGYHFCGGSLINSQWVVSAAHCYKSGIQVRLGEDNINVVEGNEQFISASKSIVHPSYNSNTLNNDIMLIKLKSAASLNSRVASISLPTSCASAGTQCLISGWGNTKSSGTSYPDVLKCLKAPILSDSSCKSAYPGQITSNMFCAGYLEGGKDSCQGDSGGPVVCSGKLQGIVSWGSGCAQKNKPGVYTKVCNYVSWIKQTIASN
Protocol: as §1

[3] = biological target: Cell surface receptor 2 (human) (human)
Protocol: as §1

[4] = biological target: Trypsin inhibitor (Soybean) (Soybean)
Protocol: as §1

[5] = biological target: Cell surface receptor 3 (human) (human)
Protocol: as §1

Myoglobin (horse), sequence (P68082 2-154 limits assumed): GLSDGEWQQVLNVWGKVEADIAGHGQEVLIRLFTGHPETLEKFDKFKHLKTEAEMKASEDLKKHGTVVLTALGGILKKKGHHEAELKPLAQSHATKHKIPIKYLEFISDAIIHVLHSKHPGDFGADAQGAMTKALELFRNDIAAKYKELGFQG
Lysozyme (chicken), sequence (P00698 19-147): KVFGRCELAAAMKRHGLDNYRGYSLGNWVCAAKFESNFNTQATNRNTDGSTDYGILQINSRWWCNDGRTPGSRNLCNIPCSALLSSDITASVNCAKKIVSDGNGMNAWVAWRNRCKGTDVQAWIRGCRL
Trypsin inhibitor (Soybean) (Soybean), sequence (P01070 25-205): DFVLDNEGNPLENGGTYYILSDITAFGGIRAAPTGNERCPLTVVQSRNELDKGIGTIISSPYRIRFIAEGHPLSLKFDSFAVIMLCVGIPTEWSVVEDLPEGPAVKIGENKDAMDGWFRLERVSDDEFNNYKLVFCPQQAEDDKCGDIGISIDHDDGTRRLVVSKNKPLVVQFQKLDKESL

B1: Camille (format not stated) (antibody, V domains shown)
VH: QVQLQQSGPGLVKPSQTLSLTCAISGESVSTSSAAWNWIRQSPSRGLEWLGRTYYRSKWKHEYAVSVKSRITINPDTSKNQFSLQLNSVTPEDTAVYYCARDRYYYSAFDYWGQGTLVTVSS
VL: QSALTQPASVSGSPGQSITISCTGTSSDVGGYNSVSWYQQHPGKAPKLLIYAVSNRPSGVSNRFSGSKSGNTASLTISGLQAEDEADYYCASYDERFTRVFGGGTKLTVLG
notes: also called Antibody Camille
- signal normalized to reference antibody MOR03207 [1]: 1 ratio
- signal normalized to reference antibody MOR03207 (Lysozyme (chicken)): 0 ratio
- signal normalized to reference antibody MOR03207 (Fibrinogen (bovine)): 1 ratio
- signal normalized to reference antibody MOR03207 (RNase A (cow)): 1 ratio
- signal normalized to reference antibody MOR03207 (Cytokine 2 (human)): 2 ratio
- signal normalized to reference antibody MOR03207 (Serum albumin (human)): 1 ratio
- signal normalized to reference antibody MOR03207 [2]: 1 ratio
- signal normalized to reference antibody MOR03207 (Myoglobin (horse)): 1 ratio
- signal normalized to reference antibody MOR03207 (Trypsinogen (cow)): 1 ratio
- signal normalized to reference antibody MOR03207 [3]: 1 ratio
- signal normalized to reference antibody MOR03207 [4]: 1 ratio
- signal normalized to reference antibody MOR03207 [5]: 1 ratio
